The supplement of paper PMC12636428

System: Saccharomyces cerevisiae
Assay: transcriptional activation domain activity (GFP:mCherry ratio, weighted mean of sorted bins, harmonized to initial dataset scale) (arbitrary fluorescence ratio units); higher = stronger transcriptional activation
Settings: beta-estradiol 1 µM; induction time 4 h
In short: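 In diploid yeast carrying a GFP reporter, barcoded protein tiles fused to an estradiol-inducible synthetic transcription factor were integrated at the URA3 locus. Cultures diluted 1:5 into SC with 1 uM beta-estradiol were kept at 30 °C for 4 hours, then sorted by GFP:mCherry ratio into 8 bins before barcode sequencing. Tiles with under 50 reads were excluded. The activation activity reported here is the read-weighted mean of bin median fluorescence, averaged across barcodes and linearly rescaled to the initial dataset.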

Row | Sequence | transcriptional activation domain activity
1 | MNITTVRALGLYILFHQYLIMIEDFICGFLIWYLRYFFYFTYLLCTVISYLSC | 78500
2 | MGFSIDRAIELIWNLLYFFFLSSFLHIFLGLSWDMIICWNYFLSLFILLVFSS | 62600
3 | GGEGEKKKREGKEGREKRGGRRKKGRGKKGRGREGRKKGKRKREGKGKKGEKR | 24600
4 | LDKVADPDYHPAVENSDVEEVMAAWRKTVREEALGVVEAGGGNVPGRGRVEVK | 48000
5 | MKPITPKLEEQEPAAYGAAASAATVPTTKRKCVSSACVPCRRRKSKVTPRNPL | 34500
6 | MSWPFFYLSFSLFFPPLLLDRGLLLLCGFFFLFLYIFLPGILWHLEAWFFLLV | 59300
7 | KEENKKDDLKEATKKGRKPRAAKEEAKEEAEGVKPKGRKRKATEEASDEIVVA | 23400
8 | SMNYISITAPIYDRGPDSTCLLGSTVCSYFDYDTWTLSLTLWVLIQLTWSMFL | 60800
9 | VVALVADPEFQRELAYVLCGQSILVRWPAKILNGLWLYCHLLQQAILPWFIFY | 52600
10 | VANILCLSTSLLACSMVFWSIPSWYYLVSHYQEWMPHVILPLYLLWWLFMMLV | 39200
11 | VNDAARILLAGLLEIKYTIREHLKSMFGSPWIIMYWRNWSGPLNITLELLGKC | 45200
12 | MDTLSSSFAHILCIFFYLHPFLLFFSFSLFPFFVFATPATRTGVRLFYFFFLF | 41600
13 | SLVAATATAVEAEPPQPVKRPRGRPKKDATVASSPKPARATKAKAKAKAAVPP | 24700
14 | LIPTEGGELALGGAPLEDEDESTSDEEETPKASFQARLERLRKRMDGRPIKDI | 26300
15 | MRDISTLTVCCPLLFFLNLLHFLCFSLCFSLTYFINCLTFLLFLYISFFIKLF | 42800
16 | SSPSIQTASSVSTVLVVGSNDKTVKDVGEGLKTKLGVKGGGKGPRWSGKFIGV | 19700
17 | GVENQVDFHHNEKHKLMLLKALGYRVLADINKVSVVMPAALVGTVVLTLRGRG | 44500
18 | FGVGMVPLGCQWACHLVALMVLFDVGWLCISRFILLDSMLLFFTFLTVFCMTK | 57900
19 | AILLFIELASMGGFTWHLLSGLFFGDVCLIYMDLDDTLFFLFVLVALFSQSFV | 46700
20 | MILMLLLLLLLLLLLLVMVLLLLLVMVLLVVLLVLLWVLLLMLLWVLLGVLLG | 16200
21 | ATWKLVQIGYRRDESLFLYFFYFYLFLFCFNMCGSSFYLLLLCCHIHIVAHSV | 71000

Row | Sequence | transcriptional activation domain activity
22 | VVFVLIIFSLSILPSAPLVKTGALVVLASLLLMPITQQFFLPSLPIWTYLLYF | 47500
23 | MYMIFINPLLLMIILYIKLLPLMFPLLINLLILLIFLLYIHLLSIVFLQKFYI | 60100
24 | KEEDEAPAPRKARGKAKKAIVEEEEAPESEVEAPEPKAKKGRGRKAAVKKVVS | < 6570
25 | GRIMERSGGWLVLVSHFSYFLNWVLVLFLLFFGGYAYVYYLCISSLLFPFTSF | 48800
26 | HNTHKELSEQAVIDSFHVLCFSVGTIKNKPMIVYLVRQGPAIWLTMCTLNDLN | 27200
27 | MHYIGGYLVLFYFFLFLFFFYFFFFSPFFYFLPFLFFLFFSIPYFFFFAPFVS | 39700
28 | GRGVKAGGGPRDREGGERGRERGEEGGEEGARRKEGDSRKEPAGGERREREEG | 33400
29 | CDLQQSHYTPWRILFGLREPLVSAMNYLITYIPRGESSVIIGIRTFVLFSLCF | 37900
30 | YQTGYFSEAHFFLFFLFFYFRKSFSFQSNCISYTLPFGLLPIFFSTTIVLFWF | 66400
31 | SGGEGTRRRASGRGRGRGRGRNGRGARAARGDGEKKEGETTEAAAPTSGETPA | 34800
32 | EGAADGRDEGEKSKVQKVGKACVYCQRSHMTCDESRPCKRCVSRKIADLCHDR | 29900
33 | DAYLLWGPGFIPTVCHIHDFPLLLPVAIFLVYINLSSCHLDPLISFLFLPLFG | 66500
34 | IEKNMYPVGTLLTLADHGFNGWLKTTLLPYLNLLHNLDVLDPELLTIFTSFIL | 54700
35 | WRYGKCQVCGYVMINYPGPNQRHHCLEGRVRTVYNTVTFPCYLEVHVVQMIWL | 60800
36 | GGEEGRRKEREAGGRGTQKGEEEGDEVGRGGRGRRQREGRERGEARAGAGRRR | 30800
37 | LIFCVHMTVILFVILFCYLNRGFVPMTNGKYFYADFRISNTWGFITSLTLVLN | 38100
38 | PLSLLIYFLEWIGPLNLWIRCLCKTSLIEFYFRLLVILLMPFLFVFWHIIGLG | 40100
39 | MCIICVLYVYYMYICFVCVHCICFYIFVHRFCLSVCMFFFFFFFFVCFINIIL | 69900
40 | VEEQKPVAEEAPVRTKVEESKVQEAPVVEAKAEVAVTAAAAVAATAAVATAAV | 23500
41 | FFLKVYLLNPLHMTRFADLLYQGAILNHVFQPYESHLQYLLQWMCDYNLYGCA | 70700
42 | GESSSKPPKKRGRPRKNPLPPAEPSGADEGETSAPAAEPNPPKRKRGRPRKDS | 34600

Row | Sequence | transcriptional activation domain activity
43 | ASIPEPTANLFLDSINTFGSIDIFDSDLDLNNTLQWADLFDLNFDNIMMTPQF | 123000
44 | DESINGSEMPDFSLDLVSNDRQTGLEALDYDIHNYFPQHSERLTAEKIDTSAC | 76700
45 | SRREDGVKVEDADDGGVSLEKGVEDLNIDNNNGKKEKGGVFVHCAAGKSRSVS | 43100
46 | KQYCVRPNSGRIEPGKDVEVQVLLQAMKEDPAPDAKCRDKFLVQSVAVTADKE | 44600
47 | IGSLLCERADVIARLVSYLLRRYAIDGFRTILLWLNDWPVGLKLNYHLASHFC | 56800
48 | AGTVPLMIYSTRLARESIGAWRLACLTLFIVTQIRGSVVLLAKSKLWTHILSC | 74600
49 | REYHGDTAEIKYGHKVVEIGEDKERGKARVRVEKDGEGGVKEEEVHEADYVVG | 22600
50 | LLLLIWMVTRLVRTYTTIMFRCLGPPDHVAKMHRLLLGLSTCLQLSVYVLITS | 47300
51 | RDRGGERDSKPRKTSGSSSNSQHADRGDTRSQKSSRRRRSSRSEHGGETSQHH | < 6570
52 | KRGRPAKKAQEEVEVEEAAPAKRGRKAVAKEEPAKKETKAKPTTKSRGTKRAA | 38600
53 | DDGESKEKRSRREKSAASEDESRKRSKSRSKSKSKTPSGNDESSNEDTSAGAD | 18600
54 | EQDSWNAQLDFFNHIFYTQLYPAYDLPKKLQEDTELETEQENQMLNQVGNINY | 109000
55 | EDDEELVEEVAKKGKGKGKGKAGKAAAAIGAAEGGKGRRGRKPKAKGAEEQGE | 60600
56 | MHFLNFLFYCVYYLPLNHTIFFYFVWLTLTLLFFFFLVVYIHISSISSFFYIC | 56600
57 | MAPTKAVAPAPAAAADGTVKRGRGRPPKDPSERKPKPEPSGRPRGRPKGSGGV | 33400
58 | MVQYIMSSKLLLSCINLLRSSILCTMLYLSFFGNFLLCHMIFGLWFYFMMHHE | 53300
59 | AEEEVEEEVKEEEEEEAKEEEDANESEPEPAPEPAKKGRGRKAAKAPTPVEDE | 39700
60 | MPTNFTKEGRTCTVTYKIQVHMIRPAVFIDFITLWIRQTFGMIVMVVTAELPR | 47800
61 | EESLGAGMAKLNLDSATPSSHKSEPIFIAIDCEAYEEGAHAVTEVGVATLDTR | 56000
62 | MSNGSSFVQCIDTRLCLLYSLVFREHMAFHPIISSFLFLIRLLILLASLFLFF | 48500
63 | PSSTARRKLLLIYIDFKFFLAASWFRLCNLTLIGSVWWPIWGYMCWILSGPLF | 67300

Row | Sequence | transcriptional activation domain activity
64 | MDGSEANRPYHAKKPHRKSRSGCRNCKTRKVKCDESRPTCRACRLRREACAYP | 16600
65 | SSEESSSEDDDGDVKMADAKPAANGIYIYLSSINRLINPLQFQVSVKPTRMSL | 47200
66 | MPRPKRPGAPEAKTRSRKGCWPCKARKVKCGEEKPACSNCSRQGVICDYSIRL | 34600
67 | DETAPATEEASKEGEAAEEAAPAAEAEETKTEEAPNKEEGTKRRSASRKRVSI | 37200
68 | QLLLSRLVTWLIRLVCQDEGPLVLKKMCSTLATYFLRPTASWPQCIRHLICSF | 38800
69 | LPNFLKLGLTTLYSAIGFDEWPSDAVKWAYYFSNIRMVRSWSSWDLYQHLVPW | 45500
70 | TSIRKIRAGESGGGESGGGESSGGESSGGGERGRRRRGAKEVEVRARGGGKAT | 43700
71 | MVSYLIGALDIHMYGIWFWPFWLFESWASWIGLRDVFYLFIFFPLFFSLYSTL | 49600
72 | NWNKYNWLIIAILSNFTSWFFHVWHHKLYSAFHDTSRIKNWNLFKTIQFWLFI | 45300
73 | SWFDIDEENGDVISRLEWYHLVQMSLVHATILIWWTTGKVLININVSMAVRCG | 54100
74 | FGYSPSAVWVFLFCFGQGLISFAFLPFFFYLVSICIIILGGLLFCIWVVYIYQ | 28400
75 | SFRYHYGELRLSRLNKIHCITRFTWRDFVRGYMTTSTWYQDFFARNFAWLLAV | 55900
76 | SSRKEDKSERRHRHRHRSRSRDRDQRHRRHHRSDSRERNQDGDGERRRRHRRS | 26700
77 | MPSCFCFIPEFTALSLPPLCSLFWFRLCTWLFLRMLCTRIYLFCSWFFCLTYF | 56400
78 | MVQAVIRLILDYCRYLVVSFYQFCLCCYSPLMCVPGHGIMLITSLFLKLIHVI | 58200
79 | EKTRRNREKREKKKNKGKGGKGGGGGGNGGGGGGSGNAATVTAAAENGAGKKE | 30900
80 | SVRHWELRVRAKYGRVLCRFLAQIEFDPFLLSDSSKRAILTVLRAVADIMVEC | 42400
81 | MLDLLVVHFPISNGLIEDNDLKVLVKAAVGVVLRKDMSLNRRLYAWLLGAQEG | 44600
82 | RALLLLSYCAFLKTTGVTDGEIVQLISTSAELKFRPWSLVRGAECVNRCITAL | 47400
83 | GCVVSCKLVGLFTITLIGVAVLYDLWRIIDIRRGTTMAQFARHFVARALALIA | 21600
